# Data taken from patent US20210032334A1 (Dana-Farber, published 2021).
# T1: full-length murine BTNL2 expressed on 300.19 cells (mouse)
# T1 construct: No signal peptide limits are stated; also called mBTNL2; mouse BTNL2
# T1 chain: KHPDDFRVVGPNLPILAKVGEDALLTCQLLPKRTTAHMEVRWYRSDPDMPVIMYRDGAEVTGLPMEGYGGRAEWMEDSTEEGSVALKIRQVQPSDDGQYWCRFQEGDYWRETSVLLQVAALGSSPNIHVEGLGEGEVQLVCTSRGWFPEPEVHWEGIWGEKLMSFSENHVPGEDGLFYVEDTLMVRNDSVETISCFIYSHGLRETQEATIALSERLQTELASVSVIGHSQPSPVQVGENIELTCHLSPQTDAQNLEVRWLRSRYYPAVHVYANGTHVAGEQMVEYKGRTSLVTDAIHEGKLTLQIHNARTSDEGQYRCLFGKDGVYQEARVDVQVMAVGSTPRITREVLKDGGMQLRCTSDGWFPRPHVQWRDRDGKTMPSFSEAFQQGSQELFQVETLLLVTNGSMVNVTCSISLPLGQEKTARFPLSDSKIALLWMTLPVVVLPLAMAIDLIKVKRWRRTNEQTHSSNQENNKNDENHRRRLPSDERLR
# Molecular target: T1, full-length murine BTNL2 expressed on …
# Assay: flow cytometry, cell binding on 300.19 cells expressing full-length mBTNL2
# Procedure: All rat anti-mouse BTNL2 mAbs were tested for reactivity with specific Ig domains of BTNL2 by flow cytometry on 300.19 cells transfected with full length murine BTNL2 cDNA, murine BTLN2 (first IgV domain)-murine PD-L1 (IgC, transmembrane and cytoplasmic domains, or BTNL2 (first IgV domain and 2nd Ig domain and short exon 4)-human TIM-1 mucin-transmembrane-cytoplasmic domains and for lack of reactivity with untransfected 300.19 cells. In particular, mouse pre-B cell line 300.19 cells were transfected by electroporation with full length murine BTNL2 cDNA, murine BTLN2 (first IgV domain)-murine PD-L1 (IgC, transmembrane and cytoplasmic domains, or BTNL2 (first IgV domain and 2nd Ig domain and short exon 4)-human TIM-1 mucin-transmembrane-cytoplasmic domains in the pEFGF-Puro expression vector. Cells were selected in media containing puromycin, sorted, and subcloned. […] Cells were stained with target antibodies and isotype controls using standard flow cytometry procedures, and analyzed on a FACSCanto (BD Biosciences) and FlowJo 9.2 software (TreeStar). […]
# A number of anti-BTNL2 monoclonal antibodies were generated and analyzed (see FIGS. 3C-3D and Table 3 below for details), including extensive analysis of two exemplary anti-BTNL2 monoclonal antibodies that were prepared in rat against mouse BTNL2 (mBTNL2). […]
binder,measurement,value
"anti-mouse BTNL2 monoclonal antibody clone 311.8A7 (antibody, rat IgG1, V domains shown, Rat IgG1 (kappa) from a hybridoma, 311 series) VH: EVRLVESGGGLVQPGRSLKLSCAASGFTFRIFYMAWVRQSPTKGLEWVAYISAGSDFTYYRDSVKGRFTISRDDAKSTLYLEMDSLRSEDTATYHCTTGYRYNFAYWGQGTLVTVSS VL: DIQLTQSPSSLPASLGERVTISCRSSQDINSHLNWYQQKPDGTIKALIYQTSNLQSGVPSRFSGSGSGADYSLTISSLEPEDFAIFHCQQDADFPYTFGAGTKLELK",EC50,0.054 µg/mL
